# Patent publication US20110269676A1
# Biological target: recombinant gp120 (HIV (strain not stated))
# Experiment: SPR (BIAcore3000), gp120 immobilised on CM5
substance,measurement,value
2D (D1D2 domain of soluble CD4) (from UniProt P01730 26-210) (receptor),Ka,4.8e+07 M⁻¹
same,Kd,21 nM
same,koff,0.00047 s⁻¹
same,kon,22000 M⁻¹ s⁻¹
